Drawing on US20220332804A1 (CSL INNOVATION, published 2022), this text covers Fold diff for one molecule.

What all share (experiment): SPR; KD relative to WT C2;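 note: biacore SPR at 37 °C, anti-C2 mAbs captured on an anti-human IgG chip, alanine or serine C2 surface mutants tested, KD from 1:1 fit compared with wild-type C2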
In one test the target is T1, human C2 V418A (human, UniProt P06681 21-752).
T1 sequence: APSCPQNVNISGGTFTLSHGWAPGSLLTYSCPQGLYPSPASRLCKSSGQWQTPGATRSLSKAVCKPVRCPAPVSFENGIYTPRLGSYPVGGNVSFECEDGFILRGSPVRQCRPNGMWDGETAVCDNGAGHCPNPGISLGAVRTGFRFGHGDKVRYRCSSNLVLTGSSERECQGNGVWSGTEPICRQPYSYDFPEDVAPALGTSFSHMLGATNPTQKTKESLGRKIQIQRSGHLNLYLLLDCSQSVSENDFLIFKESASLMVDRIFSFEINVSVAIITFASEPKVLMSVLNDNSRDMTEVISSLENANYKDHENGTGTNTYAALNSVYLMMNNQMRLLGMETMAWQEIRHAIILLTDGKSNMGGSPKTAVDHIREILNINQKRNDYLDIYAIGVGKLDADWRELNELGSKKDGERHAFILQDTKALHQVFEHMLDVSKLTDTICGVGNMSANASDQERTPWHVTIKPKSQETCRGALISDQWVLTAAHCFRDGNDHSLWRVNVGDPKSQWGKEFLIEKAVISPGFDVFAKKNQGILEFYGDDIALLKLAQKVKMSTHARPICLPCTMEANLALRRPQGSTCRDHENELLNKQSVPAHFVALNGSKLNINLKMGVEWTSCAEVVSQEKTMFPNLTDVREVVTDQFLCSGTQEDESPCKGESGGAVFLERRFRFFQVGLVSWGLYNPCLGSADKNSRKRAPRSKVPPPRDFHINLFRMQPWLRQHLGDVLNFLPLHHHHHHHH

In the next test the target is T2, human C2 L453A (human, UniProt P06681 21-752).
T2 sequence: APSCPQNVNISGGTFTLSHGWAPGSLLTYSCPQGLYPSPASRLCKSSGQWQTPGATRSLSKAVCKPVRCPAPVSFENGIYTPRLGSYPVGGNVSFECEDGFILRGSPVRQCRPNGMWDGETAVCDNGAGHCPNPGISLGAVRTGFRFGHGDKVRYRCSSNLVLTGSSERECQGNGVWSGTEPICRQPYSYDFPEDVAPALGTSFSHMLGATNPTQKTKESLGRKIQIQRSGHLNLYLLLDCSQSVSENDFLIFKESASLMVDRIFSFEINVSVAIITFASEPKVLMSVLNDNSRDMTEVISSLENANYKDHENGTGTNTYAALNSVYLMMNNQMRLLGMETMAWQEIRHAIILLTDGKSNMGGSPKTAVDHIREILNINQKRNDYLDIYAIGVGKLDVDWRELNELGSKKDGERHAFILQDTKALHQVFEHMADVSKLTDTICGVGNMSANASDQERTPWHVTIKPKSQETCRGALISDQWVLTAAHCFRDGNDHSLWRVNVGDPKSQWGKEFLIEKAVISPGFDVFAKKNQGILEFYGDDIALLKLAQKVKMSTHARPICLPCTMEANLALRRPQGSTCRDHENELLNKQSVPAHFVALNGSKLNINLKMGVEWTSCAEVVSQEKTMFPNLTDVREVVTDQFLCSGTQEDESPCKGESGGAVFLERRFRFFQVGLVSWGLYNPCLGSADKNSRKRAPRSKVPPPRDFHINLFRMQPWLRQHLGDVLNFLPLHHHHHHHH

The target of another test is T3, human complement C2 (human, UniProt P06681 21-752).
T3 construct: Recombinant full-length human C2 with C-terminal 8x His tag, purified from Expi293F supernatant; also called human C2; huC2
T3 sequence: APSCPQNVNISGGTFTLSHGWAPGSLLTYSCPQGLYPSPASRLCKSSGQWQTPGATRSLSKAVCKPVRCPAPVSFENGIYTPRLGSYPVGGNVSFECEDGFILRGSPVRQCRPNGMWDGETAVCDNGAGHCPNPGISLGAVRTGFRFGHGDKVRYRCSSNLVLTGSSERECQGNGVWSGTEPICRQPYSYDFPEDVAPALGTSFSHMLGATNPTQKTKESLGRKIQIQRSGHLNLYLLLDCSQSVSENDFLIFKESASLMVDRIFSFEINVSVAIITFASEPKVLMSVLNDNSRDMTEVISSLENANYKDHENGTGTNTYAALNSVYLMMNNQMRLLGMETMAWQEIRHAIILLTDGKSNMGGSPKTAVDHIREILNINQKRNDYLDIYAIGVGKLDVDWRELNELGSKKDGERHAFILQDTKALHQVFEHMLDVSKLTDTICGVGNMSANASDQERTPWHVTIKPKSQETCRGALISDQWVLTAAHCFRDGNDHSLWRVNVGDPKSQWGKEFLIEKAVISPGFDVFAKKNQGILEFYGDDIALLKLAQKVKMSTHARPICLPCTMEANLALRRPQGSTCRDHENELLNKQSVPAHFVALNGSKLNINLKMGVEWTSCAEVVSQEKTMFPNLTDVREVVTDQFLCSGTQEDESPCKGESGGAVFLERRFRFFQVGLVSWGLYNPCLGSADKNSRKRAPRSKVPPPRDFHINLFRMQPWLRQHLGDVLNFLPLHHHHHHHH

The target of the next test is T4, human C2 I272A (human, UniProt P06681 21-752).
T4 sequence: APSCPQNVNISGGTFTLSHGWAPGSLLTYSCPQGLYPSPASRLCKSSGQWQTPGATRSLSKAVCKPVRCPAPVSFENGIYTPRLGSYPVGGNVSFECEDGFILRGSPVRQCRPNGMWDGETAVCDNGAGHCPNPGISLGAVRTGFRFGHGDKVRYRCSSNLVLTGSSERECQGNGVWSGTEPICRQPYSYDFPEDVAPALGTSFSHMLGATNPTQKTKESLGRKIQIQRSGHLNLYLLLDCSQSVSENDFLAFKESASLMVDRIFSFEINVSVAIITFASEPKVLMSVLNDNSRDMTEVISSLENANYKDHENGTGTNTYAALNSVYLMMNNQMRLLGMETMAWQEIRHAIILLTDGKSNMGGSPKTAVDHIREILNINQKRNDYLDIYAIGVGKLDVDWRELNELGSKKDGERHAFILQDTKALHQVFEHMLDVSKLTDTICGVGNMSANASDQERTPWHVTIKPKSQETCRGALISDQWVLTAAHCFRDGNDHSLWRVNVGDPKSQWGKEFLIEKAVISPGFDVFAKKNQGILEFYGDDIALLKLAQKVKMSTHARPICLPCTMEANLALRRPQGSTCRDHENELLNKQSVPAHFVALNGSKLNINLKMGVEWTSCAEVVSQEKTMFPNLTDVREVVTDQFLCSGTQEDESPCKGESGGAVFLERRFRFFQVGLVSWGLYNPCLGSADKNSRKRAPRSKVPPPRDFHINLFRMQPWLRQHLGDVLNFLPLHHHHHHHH

B1: RF16-214 (antibody, V domains shown)
VH: EVQLLESGGGLVQPGGSLRLSCAASGFTFSWYQMMWVRQAPGKGLEWVSRIYPSGGGTAYADSVKGRFTISRDNSKNTLYLQMNSLRAEDTAVYYCARDAGYGDNWGQGTLVTVSS
VL: QSALTQPPSVSVSPGQTASITCSGDKLGEKYASWYQQKAGQSPVMVIYQDRKRPSGIPERFSGSNSGNTATLTISGTQAMDEADYYCQAWDTRAVVFGGGTKLTVLG
B1: the Fold diff in the test with human C2 V418A turned out to be 1 fold; with human C2 L453A, 45 fold; with human complement C2, 1 fold; with human C2 I272A, 15 fold.
